In patent US20190064177A1, “INCORPORATING COMPETITIVE BINDING INFORMATION INTO MOLECULAR ARRAY ANALYSIS TO GENERATE FUNCTION NETWORKS OF INTERACTIONS” (ARIZONA BOARD OF REGENTS ON BEHALF OF ARIZONA STATE …, priority 2017, published 2019):
Each block holds one binder with its values, some of them ahead of it.

Key:
[1] = target: Diaphorase; assay: peptide array, 1 uM diaphorase, measured binding without FAD / with FAD
[2] = target: Diaphorase; assay: peptide array, 1 uM labeled diaphorase, with FAD
[3] = target: Diaphorase; assay: peptide array, 1 uM diaphorase, binding without FAD / with FAD
[4] = target: Diaphorase; assay: peptide array, 10 uM labeled diaphorase, no FAD
[5] = target: Diaphorase; assay: peptide array, 10 uM diaphorase, binding without FAD / with FAD
[6] = target: Diaphorase; assay: peptide array, 10 uM labeled diaphorase, with FAD
[7] = target: Diaphorase; assay: peptide array, 1 uM labeled diaphorase, no FAD

Binder: PQKSNHFHEAQKR
- Meas. ratio (noFAD/FAD) [1]: 2.41

Binder: RFGQNLPLGGSG
- fluorescence [2]: 2100
- noFAD/FAD [3]: 2.76
- fluorescence [4]: 63500
- noFAD/FAD [5]: 1.83
- fluorescence [6]: 34700
- fluorescence [7]: 5800

Binder: PRFNWKPYGGSG
- Meas. ratio (noFAD/FAD) [1]: 2.44

Binder: ARWQQYKFGGSG
- Meas. ratio (noFAD/FAD) [1]: 2.18

Binder: YRYGWQKYGGSG
- Meas. ratio (noFAD/FAD) [1]: 2.43

Binder: PVDFGYQLKVSGS
- Meas. ratio (noFAD/FAD) [1]: 0.66

Binder: YRRFPYFPGGSG
- Meas. ratio (noFAD/FAD) [1]: 1.6

Binder: NRKFYWNAGGSG
- Meas. ratio (noFAD/FAD) [1]: 2.1

Binder: KHSFQKELGGSG
- fluorescence [2]: 728
- noFAD/FAD [3]: 2.87
- fluorescence [4]: 2390
- noFAD/FAD [5]: 0.794
- fluorescence [6]: 300
- fluorescence [7]: 2090

Binder: WRLNPLQFGGSG
- Meas. ratio (noFAD/FAD) [1]: 2.54

Second part, the binder after the results:

- Meas. ratio (noFAD/FAD) [1]: 2.35
Binder: WRSVYVPNGGSG

- Meas. ratio (noFAD/FAD) [1]: 2.06
Binder: YRWGAKHYGGSG

- fluorescence [2]: 1600
- noFAD/FAD [3]: 2.78
- fluorescence [4]: 56900
- noFAD/FAD [5]: 2.86
- fluorescence [6]: 19900
- fluorescence [7]: 4470
Binder: YRFAQYKGQKDGSG

- Meas. ratio (noFAD/FAD) [1]: 1.74
Binder: YRRPWKFRDGSG

- Meas. ratio (noFAD/FAD) [1]: 2.56
Binder: YQRHQNVFAKSGG

- Meas. ratio (noFAD/FAD) [1]: 1.71
Binder: RQRYPKVSGGSG

- Meas. ratio (noFAD/FAD) [1]: 2.18
Binder: WRPFWKNLGGSG

- Meas. ratio (noFAD/FAD) [1]: 0.7
Binder: WHLLGWVGYGGSG

- fluorescence [2]: 3660
- noFAD/FAD [3]: 2.78
- fluorescence [4]: 64800
- noFAD/FAD [5]: 1.4
- fluorescence [6]: 46300
- fluorescence [7]: 10200
Binder: RWYKNGGSG

- Meas. ratio (noFAD/FAD) [1]: 2.56
Binder: YWRFYANWAQLFG

- Meas. ratio (noFAD/FAD) [1]: 2.43
Binder: WRVQAWRPNKVEG

- Meas. ratio (noFAD/FAD) [1]: 1.49
Binder: YRGAGKNKGGSG

- Meas. ratio (noFAD/FAD) [1]: 2.45
Binder: RVLPYHGWKWFSG

- fluorescence [2]: 1250
- noFAD/FAD [3]: 2.87
- fluorescence [4]: 50300
- noFAD/FAD [5]: 2.77
- fluorescence [6]: 18200
- fluorescence [7]: 3570
Binder: RYNLYKPSDGSG
